# Target: Influenza A/H3N2 virus strain Ark1819002 (clade 3C.2a; virus protein quantified as hemagglutinin) (Influenza A virus (H3N2)) (UniProt P03437+P03437)
# Assay: filter
# Details: not given
row,Sequence,binding signal
1,GGGAGAAUUCCGACCAGAAGUAGUAGCCCGGGUGUGGGUUUAUGGUCGUCCCUUUCCUCUCUCCUUCCUCUUCU [P30-10-h1-7],17 amol bound
2,GGGAGAAUUCCGACCAGAAGUCCCCUCCCUCGUAUCGUAUGUGCGUUUGCCCUUUCCUCUCUCCUUCCUCUUCU [P30-10-h1-5],80.3 amol bound
3,GGGAGAAUUCCGACCAGAAGGCUAUGGGUUGAGUUCUGUAUGGGUGGGUGCCUUUCCUCUCUCCUUCCUCUUCU [P30-10-h1-4],232 amol bound
4,GGGAGAAUUCCGACCAGAAGGCGCGAUUGUGUUGUGGUGGGUGGGCGCGCCUUUCCUCUCUCCUUCCUCUUCU [P30-10-h1-8],2.87 amol bound
5,GGGAGAAUUCCGACCAGAAGUAGUAGCCCGGGUGUGGGUUUAUGGCCGCCCCUUUCCUCUCUCCUUCCUCUUCU [P30-10-h1-6],34.2 amol bound
6,GGGAGAAUUCCGACCAGAAGGAACAUUUGUGGGUGGUGUGGGUGGCUGUUCCUUUCCUCUCUCCUUCCUCUUCU [P30-10-h1-9],832 amol bound
7,GGGAGAAUUCCGACCAGAAGUAGUAGCCCGGGUGUGGGUUUAUGGUCGCCCCUUUCCUCUCUCCUUCCUCUUCU [P30-10-h1-1],47.9 amol bound
8,GGGAGAAUUCCGACCAGAAGGCGCGAUUGUGGUUGUGGUGGGUGGGCGCGCCUUUCCUCUCUCCUUCCUCUUCU [P30-10-h1-2],166 amol bound
9,GGGAGAAUUCCGACCAGAAGUGUCGAUGUGUAUCUUAUUUGUUUGUUUGUUUGUUUGUUUGUCCUUUCCUCUCUCCUUCCUCUUCU [P30-10-h1-3],37.3 amol bound
10,GGGAGAAUUCCGACCAGAAGGGUCGGUGUAUAAUUGUAGUUUUGUUGUUGUUGUUGUUGUUGCCUUUCCUCUCUCCUUCCUCUUCU [P30-10-h1-10],60.7 amol bound
11,GGAGCUCAGCCUUCACUGCCAAAGUGCGAGGCAGUGUGGUGCUGUCCUACGAGUUCUAAAGUUCGUUAGGAAGGCAGCUCAACAUGUUUAACAGGCACCACCGUCGGAUCC [D12],0.1 amol bound

# Same assay, conditions: 2'-F pyrimidines
row,Sequence,binding signal
1,GGAGCUCAGCCUUCACUGCCAAAAAGUUAGGCCAGCAAAUUGCGAGCUGAUCCGGUGACUGGCUACAGGAGGCCUUGUCCACGGCCGUAUUGGCACCACCGUCGGAUCC [D26(2'-F)],32.8 amol bound

# Source: patent publication US20220135977
